Measurements published in patent US20220119490A1 (Genentech, published 2022).

T1: EPHA3 extracellular domain (human, UniProt P29320 21-541)
T1 construct: extracellular domain; ECD construct; also called ephrin type-A receptor 3
T1 sequence (looked up): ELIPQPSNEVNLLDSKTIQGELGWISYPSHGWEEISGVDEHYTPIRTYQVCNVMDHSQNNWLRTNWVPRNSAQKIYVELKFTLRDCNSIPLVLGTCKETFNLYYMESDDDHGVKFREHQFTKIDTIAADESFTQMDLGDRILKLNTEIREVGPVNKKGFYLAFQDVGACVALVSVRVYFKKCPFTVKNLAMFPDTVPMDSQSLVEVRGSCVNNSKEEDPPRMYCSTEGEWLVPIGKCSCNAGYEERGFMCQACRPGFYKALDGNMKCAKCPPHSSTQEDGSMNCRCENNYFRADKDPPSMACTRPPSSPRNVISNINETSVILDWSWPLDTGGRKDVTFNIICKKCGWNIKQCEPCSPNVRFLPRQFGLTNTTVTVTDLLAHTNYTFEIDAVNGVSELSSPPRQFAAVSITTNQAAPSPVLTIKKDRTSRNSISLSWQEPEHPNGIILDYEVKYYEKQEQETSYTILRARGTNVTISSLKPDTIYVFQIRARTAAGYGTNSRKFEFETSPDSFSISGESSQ

T2: CEACAM5 expressed on cells (human, UniProt P06731 35-685)
T2 construct: whole, on cells
T2 sequence (looked up): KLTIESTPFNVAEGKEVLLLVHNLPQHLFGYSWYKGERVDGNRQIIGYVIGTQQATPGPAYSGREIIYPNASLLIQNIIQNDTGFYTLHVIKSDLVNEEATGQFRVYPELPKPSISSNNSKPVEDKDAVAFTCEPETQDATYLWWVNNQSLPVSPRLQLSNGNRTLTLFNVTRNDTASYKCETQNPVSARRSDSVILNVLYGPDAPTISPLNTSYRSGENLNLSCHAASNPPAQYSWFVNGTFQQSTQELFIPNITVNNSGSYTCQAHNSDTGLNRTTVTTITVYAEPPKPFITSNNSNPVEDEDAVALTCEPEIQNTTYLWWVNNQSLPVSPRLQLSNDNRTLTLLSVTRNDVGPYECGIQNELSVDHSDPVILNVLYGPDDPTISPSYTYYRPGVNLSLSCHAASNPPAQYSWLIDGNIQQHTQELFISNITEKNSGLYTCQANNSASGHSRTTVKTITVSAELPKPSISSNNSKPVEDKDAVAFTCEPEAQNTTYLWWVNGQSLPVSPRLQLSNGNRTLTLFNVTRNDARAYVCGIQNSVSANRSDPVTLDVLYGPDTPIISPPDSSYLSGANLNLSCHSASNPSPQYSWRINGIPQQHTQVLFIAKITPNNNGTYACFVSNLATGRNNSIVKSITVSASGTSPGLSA

T3: EPHA3 expressed on cells (human, UniProt P29320 21-983)
T3 construct: whole, on cells; also called ephrin type-A receptor 3
T3 sequence (looked up): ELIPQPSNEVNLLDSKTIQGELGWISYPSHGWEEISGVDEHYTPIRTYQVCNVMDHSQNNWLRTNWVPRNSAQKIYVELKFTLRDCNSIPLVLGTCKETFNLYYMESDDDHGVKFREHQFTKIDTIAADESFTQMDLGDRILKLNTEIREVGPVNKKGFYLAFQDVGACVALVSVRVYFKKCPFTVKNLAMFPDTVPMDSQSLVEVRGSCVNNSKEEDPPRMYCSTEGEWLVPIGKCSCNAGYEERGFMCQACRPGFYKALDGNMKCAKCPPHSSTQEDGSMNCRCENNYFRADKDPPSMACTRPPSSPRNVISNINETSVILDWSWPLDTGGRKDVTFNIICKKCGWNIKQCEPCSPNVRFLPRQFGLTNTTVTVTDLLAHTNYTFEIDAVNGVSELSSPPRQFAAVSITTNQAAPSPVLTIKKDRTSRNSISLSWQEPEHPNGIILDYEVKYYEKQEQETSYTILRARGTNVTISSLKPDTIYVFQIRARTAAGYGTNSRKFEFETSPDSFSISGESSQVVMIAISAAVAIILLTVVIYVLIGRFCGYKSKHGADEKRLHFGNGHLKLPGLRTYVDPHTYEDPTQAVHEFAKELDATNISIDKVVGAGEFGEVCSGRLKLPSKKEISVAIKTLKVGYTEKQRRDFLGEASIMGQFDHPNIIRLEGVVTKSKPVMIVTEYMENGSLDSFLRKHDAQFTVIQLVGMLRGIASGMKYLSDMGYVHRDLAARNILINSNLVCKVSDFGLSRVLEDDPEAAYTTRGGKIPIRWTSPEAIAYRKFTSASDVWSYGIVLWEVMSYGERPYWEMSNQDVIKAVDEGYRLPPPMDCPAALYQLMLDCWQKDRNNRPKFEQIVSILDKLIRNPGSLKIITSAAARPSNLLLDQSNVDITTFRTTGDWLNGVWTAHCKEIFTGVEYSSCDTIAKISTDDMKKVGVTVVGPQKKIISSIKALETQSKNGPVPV

T4: ICAM5 (human, UniProt Q9UMF0)
T4 construct: extracellular domain
T4 sequence (extracellular domain construct of the screen, looked up): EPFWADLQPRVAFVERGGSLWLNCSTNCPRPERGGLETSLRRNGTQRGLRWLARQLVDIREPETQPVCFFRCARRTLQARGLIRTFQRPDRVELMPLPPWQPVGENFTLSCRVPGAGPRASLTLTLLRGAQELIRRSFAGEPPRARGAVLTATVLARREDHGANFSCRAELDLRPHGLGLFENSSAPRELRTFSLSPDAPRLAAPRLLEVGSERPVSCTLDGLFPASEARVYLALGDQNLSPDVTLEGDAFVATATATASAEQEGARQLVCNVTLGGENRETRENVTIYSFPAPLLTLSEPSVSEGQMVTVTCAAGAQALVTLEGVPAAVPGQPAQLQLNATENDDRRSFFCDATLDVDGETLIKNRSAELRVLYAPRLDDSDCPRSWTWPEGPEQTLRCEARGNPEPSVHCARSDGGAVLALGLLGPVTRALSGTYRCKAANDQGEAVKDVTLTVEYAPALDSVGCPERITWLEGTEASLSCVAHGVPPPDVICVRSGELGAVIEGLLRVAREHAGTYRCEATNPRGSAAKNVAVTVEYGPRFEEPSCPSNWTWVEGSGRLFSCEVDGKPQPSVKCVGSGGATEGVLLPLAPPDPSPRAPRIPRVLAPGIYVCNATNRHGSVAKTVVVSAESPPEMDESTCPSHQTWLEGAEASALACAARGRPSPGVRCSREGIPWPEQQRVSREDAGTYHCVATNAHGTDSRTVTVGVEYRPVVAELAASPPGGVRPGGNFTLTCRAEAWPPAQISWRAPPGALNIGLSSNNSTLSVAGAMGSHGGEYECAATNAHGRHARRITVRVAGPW

T5: mouse CD177 (mouse, UniProt Q8R2S8 22-796, limits assumed)
T5 sequence (looked up): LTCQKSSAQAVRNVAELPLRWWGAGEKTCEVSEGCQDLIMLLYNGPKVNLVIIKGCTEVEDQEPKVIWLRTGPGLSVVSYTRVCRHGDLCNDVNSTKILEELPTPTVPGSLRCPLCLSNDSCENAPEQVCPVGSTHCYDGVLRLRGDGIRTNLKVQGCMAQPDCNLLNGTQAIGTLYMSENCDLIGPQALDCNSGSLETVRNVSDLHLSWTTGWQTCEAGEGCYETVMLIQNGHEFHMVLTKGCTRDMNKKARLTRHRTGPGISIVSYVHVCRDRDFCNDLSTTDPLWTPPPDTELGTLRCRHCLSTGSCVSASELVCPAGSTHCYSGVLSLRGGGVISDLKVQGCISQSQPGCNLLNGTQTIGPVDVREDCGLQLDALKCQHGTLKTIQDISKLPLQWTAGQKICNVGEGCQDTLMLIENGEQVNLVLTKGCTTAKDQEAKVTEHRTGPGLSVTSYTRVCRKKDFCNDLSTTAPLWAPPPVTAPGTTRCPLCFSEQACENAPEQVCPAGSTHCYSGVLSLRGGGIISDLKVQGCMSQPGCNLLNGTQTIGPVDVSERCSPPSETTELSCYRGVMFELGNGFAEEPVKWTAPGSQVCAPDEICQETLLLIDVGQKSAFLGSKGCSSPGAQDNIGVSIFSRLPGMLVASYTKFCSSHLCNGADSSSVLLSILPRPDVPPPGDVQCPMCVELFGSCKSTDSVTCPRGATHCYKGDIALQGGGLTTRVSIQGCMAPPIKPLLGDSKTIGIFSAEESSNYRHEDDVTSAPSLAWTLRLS

B1: CEACAM4 extracellular domain (receptor, human, UniProt O75871 36-155, looked up)
chain: FTIEALPSSAAEGKDVLLLACNISETIQAYYWHKGKTAEGSPLIAGYITDIQANIPGAAYSGRETVYPNGSLLFQNITLEDAGSYTLRTINASYDSDQATGQLHVHQNNVPGLPVGAVAG
notes: extracellular domain; ECD construct
B2: CEACAM4 expressed on cells (receptor, human, UniProt O75871 36-244, looked up)
chain: FTIEALPSSAAEGKDVLLLACNISETIQAYYWHKGKTAEGSPLIAGYITDIQANIPGAAYSGRETVYPNGSLLFQNITLEDAGSYTLRTINASYDSDQATGQLHVHQNNVPGLPVGAVAGIVTGVLVGVALVAALVCFLLLSRTGRASIQRDLREQPPPASTPGHGPSHRSTFSAPLPSPRTATPIYEELLYSDANIYCQIDHKADVVS
notes: whole, on cells
B3: PD-L2 extracellular domain (ligand, human, UniProt Q9BQ51 20-220, looked up)
chain: LFTVTVPKELYIIEHGSNVTLECNFDTGSHVNLGAITASLQKVENDTSPHRERATLLEEQLPLGKASFHIPQVQVRDEGQYQCIIIYGVAWDYKYLTLKVKASYRKINTHILKVPETDEVELTCQATGYPLAEVSWPNVSVPANTSHSRTPEGLYQVTSVLRLKPPPGRNFSCVFWNTHVRELTLASIDLQSQMEPRTHPT
notes: extracellular domain; ECD construct; also called PDCD1LG2; programmed cell death 1 ligand 2
B4: mouse PDPN (receptor, UniProt Q62011 23-141, looked up)
chain: GTIGVNEDDIVTPGTGDGMVPPGIEDKITTTGATGGLNESTGKAPLVPTQRERGTKPPLEELSTSATSDHDHREHESTTTVKVVTSHSVDKKTSHPNRDNAGDETQTTDKKDGLPVVTL

Legend:
[1] = biological target: T6, PD-1 extracellular domain (human, UniProt Q15116 25-170); assay: SPR, CEACAM4 ECD-Fc immobilized, ECD-Fc analytes at 250 nM
T6 construct: extracellular domain; ECD construct; also called PDCD1; programmed cell death 1
T6 sequence (Q15116 25-170): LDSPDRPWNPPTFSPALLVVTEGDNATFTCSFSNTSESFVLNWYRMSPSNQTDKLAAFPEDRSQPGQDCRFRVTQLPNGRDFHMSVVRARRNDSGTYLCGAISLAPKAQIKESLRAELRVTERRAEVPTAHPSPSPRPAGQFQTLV
Text: (§1) An irrelevant Fc-tagged protein was used as a control. Sensorgram shown is representative of at least 3 independent runs.

[2] = biological target: T7, PD-L1 extracellular domain (human, UniProt Q9NZQ7 19-238); assay: as above
T7 construct: extracellular domain; ECD construct; also called CD274; programmed cell death 1 ligand 1
T7 sequence (Q9NZQ7 19-238): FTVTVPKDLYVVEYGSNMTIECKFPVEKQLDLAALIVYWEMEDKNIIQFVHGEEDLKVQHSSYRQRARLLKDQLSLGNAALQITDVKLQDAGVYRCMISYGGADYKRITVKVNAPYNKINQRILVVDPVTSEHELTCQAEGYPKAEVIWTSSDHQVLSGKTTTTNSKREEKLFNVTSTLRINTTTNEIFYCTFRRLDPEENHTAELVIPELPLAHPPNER
Text: as §1

[3] = biological target: B3; assay: SPR, calculated in equilibrium; PD-L2 immobilized, His-tagged CEACAM4 ECD as analyte (FIG. 10E)
[4] = biological target: T7, PD-L1 extracellular domain; assay: cell surface interaction assay: PD-L1 ECD tetramer on transfected cells (FIG. 4F)
[5] = biological target: T1, EPHA3 extracellular domain; assay: SPR, EPHA3 ECD-Fc immobilized, ECD-Fc analytes at 250 nM
Text: as §1

[6] = biological target: B2; assay: cell surface interaction assay: PD-L2 ECD tetramer on transfected cells (FIG. 4F)
[7] = biological target: T2, CEACAM5 expressed on cells; assay: as above
PD-L1 expressed on cells = biological target: T8, PD-L1 expressed on cells (human, UniProt Q9NZQ7 19-290); assay: as above
T8 construct: whole, on cells; also called CD274
T8 sequence (Q9NZQ7 19-290): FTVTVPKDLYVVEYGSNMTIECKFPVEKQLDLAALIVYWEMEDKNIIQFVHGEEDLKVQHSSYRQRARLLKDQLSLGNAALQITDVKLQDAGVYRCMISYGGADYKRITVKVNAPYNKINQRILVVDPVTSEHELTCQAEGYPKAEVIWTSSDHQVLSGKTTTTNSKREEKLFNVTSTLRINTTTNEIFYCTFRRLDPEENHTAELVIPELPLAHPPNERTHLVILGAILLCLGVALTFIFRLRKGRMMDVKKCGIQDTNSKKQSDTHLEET

EPHA3 expressed on cells = biological target: T3, EPHA3 expressed on cells; assay: as above
ICAM5 = biological target: T4, ICAM5; assay: extracellular interaction screen, normalized intensity; labelled dot against the clone named on the axis; which is query and which prey is not given; colour of the predicted class lost
mouse CD177 = biological target: T5, mouse CD177; assay: SPR

Binder: B1
- binding result [1]: no binding (tested: 250 nM)
- binding result [2]: no binding (tested: 250 nM)
- Kd [3]: 84 nM

Binder: B2
- binding result [4]: no binding

Binder: B3
- binding result [5]: no binding (tested: 250 nM)
- binding result [6]: binds
- binding result [7]: no binding
- binding result (PD-L1 expressed on cells): binds
- binding result (EPHA3 expressed on cells): no binding
- binding result (ICAM5): binds

Binder: B4
- binding result (mouse CD177): no binding
